Experimental data: the supplement of paper PMC10567573
± gives the standard deviation.

Experiment: protein stability index of a GFP-peptide fusion (GPS, HEK-293T) (PSI 1-6); higher = more stable
Conditions: c terminus: a fixed tail appended
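Note: 24-mer peptide tiles fused after GFP, lentivirally expressed, FACS-sorted into six equal bins by GFP/DsRed ratio, decoded by Illumina sequencing, PSI is the read-weighted mean bin number.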

Sequence | protein stability index (treatment: DMSO) | protein stability index (treatment: MLN4924 1 uM, 8 h)
EPSSPASLTDSVNHHSPGGSSDAS [ESRRG] | 5.47 ± 0.15 | 5.51 ± 0.15
EQLLDVKLALDMEISAYRKLLQGE [LMNB1] | 3.02 ± 0.45 | 3.13 ± 0.55
ERCLSCILAQQPDRLRDEELAELE [TRADD] | 4.41 ± 0.39 | 4.19 ± 0.51
ERPERRSGPPASYCAKLCEPQWFY [C8orf76] | 2.46 ± 0.26 | 2.54 ± 0.32
ERYMCSRFFIDFPHIEEQQKKIES [TENT5D] | 3.21 ± 0.3 | 3.23 ± 0.16
ESGKSTIVKQMKIIHEAGYSEEEC [GNAI1] | 5.16 ± 0.18 | 4.85 ± 0.13
ESILMSLPLTARWEYMHSPSENSK [CPOX] | 3.45 ± 0.57 | 3.93 ± 0.33
ESLRPLVQTPPGGSEVVPVISPMY [IKZF1] |  | 3.72 ± 0.71
ETALYRKMLGNPSRLPAKCPGKGA [FKBP8] | 3.61 ± 0.31 | 3.62 ± 0.3
ETDVWFSKQRKDFEGMAFLETEQG [GMCL1] | 4.12 ± 0.62 | 4.45 ± 0.16
ETLSGDRVRLDSELRNVQDVVEDY [KRT71] | 5.16 ± 0.19 | 5.36 ± 0.18
ETYMSADDLRINLWHLAITDRSFN [PPP2R2C] | 2.23 ± 0.32 | 2.36 ± 0.29
EVLLASLANPVLESTPVGTVVGLF [PCDHGC5] | 2.53 ± 0.51 | 2.33 ± 0.43
EVNVLNDMRDTPLHRAAFTGRKIC [OSBPL1A] | 3.19 ± 0.089 | 3.26 ± 0.31
EVSHPFLIRLFWTWHDERFLYMLM [PRKX] | 2.24 ± 0.55 | 2.14 ± 0.19
FARFCKSQESALGNTVPAVEPGTP [DNAAF3] | 3.63 ± 0.25 | 3.58 ± 0.21
FDFERSGLQHAPEPDAADGPYDPN [SMAD6] | 5.37 ± 0.29 | 5.5 ± 0.41
FDVHPPLGKMLIGLAGYLSGYDGT [POMT2] | 2.18 ± 0.19 | 2.17 ± 0.13
FETQMKTLAQFPETLLGDPEKRTQ [KCNA4] | 4.79 ± 0.16 | 4.84 ± 0.21
FFHCYCPVGFGRRTDPNGDYIRRY [CRY1] | 2.4 ± 0.048 | 2.34 ± 0.42
FFLKHPDKDVRLLVACCLADIFRI [PDS5B] | 2.95 ± 0.81 | 2.75 ± 0.17
FFTVEFGLCKQDGQLRVFGAGLLS [TPH1] | 2.73 ± 0.57 | 3.09 ± 1.2
FGFAQILIPGDAYTDYVATRWYRA [CDKL4] | 2.31 ± 0.58 | 2.84 ± 0.76

Sequence | protein stability index (treatment: DMSO) | protein stability index (treatment: MLN4924 1 uM, 8 h)
FGLAIEVEGEQQAWFGFAGTPGYL [CAMK2A] | 2.68 ± 0.92 | 2.92 ± 0.65
FIDKEDLKDTYASLGKTNVKDDEL [MYL5] | 4.8 ± 0.15 | 4.92 ± 0.19
FIMDSCDELIPEYLNFIRGVVDSE [HSP90AB1] | 2.37 ± 0.13 | 2.32 ± 0.32
FKSFQYPLPWSECPVVRNGSVAVV [SLC6A17] | 2.07 ± 0.29 | 2.09 ± 0.56
FLKKSQLTEHKRIHTGKKPHVCSL [ZNF649] | 2.76 ± 0.36 | 2.75 ± 0.36
FLLKFLLVGDSDVGKGEILASLQD [RAB40B] | 3.52 ± 0.49 | 1.86 ± 0.28
FLQVLEPGARGLWKPPDIKGKLMV [SPAG8] | 2.38 ± 0.34 | 2.26 ± 0.32
FLQYYYQSGCLYRLRALGERHTMD [TMEM120A] | 2.46 ± 0.47 | 2.35 ± 0.38
FLSLACARGSIVATYIFIFIGETL [SPNS1] | 2.72 ± 0.2 | 2.92 ± 0.71
FMPAMQFSIPPWRYDAEVVAIAQK [MYORG] | 2.33 ± 0.22 | 2.52 ± 0.18
FPAVTVEVKSSIAGSSTWERYFIP [SLC29A1] | 2.61 ± 0.88 | 2.4 ± 0.28
FPRDAVQIEEVFISEEIQMSTKES [MIA2] | 4.56 ± 0.17 | 4.5 ± 0.2
FQMVLEGGVCCTVTLNFNVPGEFK [GFOD1] | 3.1 ± 0.41 | 3.14 ± 0.31
FRKDSVLNILIQSLDWETFEQYCA [INTS3] | 2.51 ± 0.61 | 2.04 ± 0.18
FRPKDQTSVGMSFVAGGISGTVAA [SLC25A39] | 3 ± 0.11 | 2.96 ± 0.29
FSGSLVAALSATGPRFLAYFGSFA [TMEM175] | 2.91 ± 0.11 | 2.61 ± 0.37
FSIPPTNHEIMPGGSVNITCVAVG [PTPRD] | 2.22 ± 0.17 | 2.06 ± 0.14
FTLNPDKKTCRRINYCALNKPGCE [MATN2] | 2.64 ± 0.64 | 2.96 ± 0.45
FVATFLRYAVVLNATWLVNSAAHL [SCD] | 3.31 ± 0.7 | 2.97 ± 0.33
FVSIAQSEQESLLQQAQAQFRMAQ [SMG5] | 2.68 ± 0.31 | 3.08 ± 0.47
FYPALWPQLRICLRVSPAEQPRLE [FBXO33] | 2.39 ± 0.46 | 2.3 ± 0.27
FYSNLILQHEERETRQKKLEVAME [STK38L] | 3.08 ± 0.2 | 3.08 ± 0.33
GAHSNAPITAHAEVEVVEEAKCCC [CSNK1G1] | 4.79 ± 0.22 | 5.23 ± 0.21

Sequence | protein stability index (treatment: DMSO) | protein stability index (treatment: MLN4924 1 uM, 8 h)
GALGMSNRDSYFYAAIVAVVAVHV [VMA21] | 2.77 ± 0.45 | 2.81 ± 0.22
GALTPTPAPTTTTATREEASTSLP [CLPTM1] | 5.28 ± 0.33 | 5.58 ± 0.22
GANINAQTEETQETALTLACCGGF [ANKRD17] | 4.63 ± 0.15 | 4.59 ± 0.31
GARLVAACSAWLCPGLRLPGSLAG [AUH] | 2.55 ± 1.2 | 3.26 ± 0.84
GDSGFLVVRGGEVVHRSDEQQHYF [PPTC7] | 3.75 ± 0.41 | 3.54 ± 0.23
GDTLRTFSLVLVLDLSKPNDLWPT [DYNC2LI1] | 2.89 ± 0.37 | 2.82 ± 0.32
GERVAARGYWGDIATGPFVAFGIE [DNAAF3] | 2.05 ± 0.3 | 2.35 ± 0.28
GFALDILFAIANGFSPSYEFFAVT [SLC22A15] | 3.3 ± 0.042 | 3.29 ± 1.1
GFAVKALWGRTQEEAEELAKEMSV [GFOD1] | 4.24 ± 0.13 | 4.07 ± 0.3
GFFDVLGNDRRREWAALGNMSKED [ACBD3] | 3.85 ± 0.44 | 4.551 ± 0.018
GFLPWLMNEVEKTMEYSMVGRTVL [RSPH3] | 2.8 ± 0.54 | 2.94 ± 0.41
GFLTVTNLGVENMNHYKKTTLEIH [PTPN9] | 1.93 ± 0.59 | 1.92 ± 0.4
GGEFQCGLEAASVYSDHTNTNNLT [RNF180] | 2.42 ± 0.36 | 2.42 ± 0.29
GGLATGIAGGLAGMGGIQNEKETM [KRT18] | 4.95 ± 0.33 | 4.58 ± 0.39
GGTPHCEPCQLPSESPGSLSEVLA [DNAAF3] | 4.19 ± 0.49 | 4.56 ± 0.33
GHSQEKTHSREKSSQESGEEAGSQ [CHGB] | 5.52 ± 0.56 | 5.45 ± 0.33
GIKAQVALRLAELARRRRRRQARR [NOP53] | 4.1 ± 0.34 | 3.85 ± 0.25
GIRLSENVIDRMKESSPSGSKSQR [CHCHD3] | 4.65 ± 0.19 | 4.72 ± 0.2
GKAFPSGCSAVSEPASESVVGALP [TRAF3IP2] | 4.33 ± 0.14 | 4.59 ± 0.24
GKDHEILRRRIENGAKELWFFLQS [FUT8] | 2.08 ± 0.65 | 2.36 ± 0.27
GKIVGSLCAIAGVLTIALPVPVIV [KCNA1] | 3.19 ± 0.34 | 3.22 ± 0.44
GKSFRQRPSLVIHLRIHTGEKPYK [ZNF449] | 2.72 ± 0.53 | 2.61 ± 0.65
GKTDDTLALLNLACMMTITFLPYT [TMEM175] | 3.21 ± 0.33 | 3.08 ± 0.16

Sequence | protein stability index (treatment: DMSO) | protein stability index (treatment: MLN4924 1 uM, 8 h)
GKTMELFCQTDQTCICYLCMFQEH [TRIM29] | 2.34 ± 0.064 | 2.33 ± 0.25
GLAGFFASVAMICAIASGSELSES [SLC29A1] | 3 ± 0.53 | 2.9 ± 0.37
GLDPEPLPLMDLCRRSVRLALGRE [SPSB1] | 4.02 ± 0.61 | 3.62 ± 0.2
GLEAPRDLEAKEVTPRTALLTWTE [TNXB] | 3.22 ± 0.4 | 4.95 ± 0.29
GLGPTSEPFPSSDDSPRSALAAAT [SPAG8] | 4.95 ± 0.19 | 5.18 ± 0.038
GLRLRLPRRESLLRGLCRPLRPLL [C6orf223] | 2.15 ± 0.13 | 2.2 ± 0.29
GMADVGTVCDPARSCAIVEDDGLQ [ADAMTS4] | 4.62 ± 1.1 | 5.33 ± 0.088
GNDRRREWAALGNMSKEDAMVEFV [ACBD3] | 4.11 ± 0.24 | 4.3 ± 0.26
GPEHATRLNGTAKGERRREPGGYD [DVL3] | 5.13 ± 0.26 | 5.18 ± 0.19
GPPGRSIGGAAPSLGALDLLGPAT [SERTAD1] | 3.79 ± 0.14 | 3.81 ± 0.11
GQFVMKTRRTLKGHGNKVLCMDWC [GNB5] | 2.16 ± 0.32 | 2.32 ± 0.3
GQLVRNDSLWHRSDSAPRNKISRF [MFF] | 3.66 ± 0.87 | 4.04 ± 0.21
GQVIWGMSWAKLARQATNLKVNFF [FBXO39] | 2.2 ± 0.72 | 2.2 ± 0.52
GQWLGGRQIRTNWATRKPPAPKST [TIA1] | 3.57 ± 0.3 | 3.73 ± 0.34
GRHAQTVETLLRHGAHINLQSLKF [RIPK4] | 2.34 ± 0.14 | 2.65 ± 0.45
GRPGIVAWTLINLSFAAKQRELHS [DHCR7] | 2.81 ± 0.31 | 3.02 ± 1
GSCGQGRTIRHVYCKTSDGRVVPE [ADAMTSL2] | 3.66 ± 0.31 | 3.57 ± 0.58
GSGVIGRSWAMLFASGGFQVKLYD [CRYL1] | 2.33 ± 0.31 | 
GSHPQQTQKLEEIKENAQDTMRQI [TOR1AIP2] | 5.27 ± 0.26 | 5.38 ± 0.24
GSQAGGSGSAGQYGSDQQHHLGSG [MYOZ1] | 4.94 ± 0.23 | 5.17 ± 0.18
GTEITIAFDFDYGNCKYKVDCACL [KMT2E] | 3.01 ± 0.52 | 2.39 ± 0.5
